One block for each binder: values may come before it.
Columns and labels:
Assay in all cases: holdup assay
Design in all cases: key: below the threshold = too weak to quantify, mostly under pKd 3.1 to 4
Conditions in all cases: plain residues with an end cap or a label only (N-terminal biotin on a linker: ado-ado)
MAGI1_1, Q96QZ7 = target: MAGI1_1, Q96QZ7
LIN7A, O14910 = target: T1, LIN7A, O14910
T1 sequence (O14910 103-200, limits assumed, looked up): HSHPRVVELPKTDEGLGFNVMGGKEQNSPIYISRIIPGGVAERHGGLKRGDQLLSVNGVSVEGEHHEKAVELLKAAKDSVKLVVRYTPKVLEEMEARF

APBA1_1, Q02410 = target: T2, APBA1_1, Q02410
T2 sequence (Q02410 651-752, limits assumed, looked up): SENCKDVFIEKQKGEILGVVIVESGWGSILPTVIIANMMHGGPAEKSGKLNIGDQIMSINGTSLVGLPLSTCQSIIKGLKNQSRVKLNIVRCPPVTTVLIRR

GRIP1_4, Q9Y3R0 = target: T3, GRIP1_4, Q9Y3R0
T3 sequence (Q9Y3R0 467-571, limits assumed, looked up): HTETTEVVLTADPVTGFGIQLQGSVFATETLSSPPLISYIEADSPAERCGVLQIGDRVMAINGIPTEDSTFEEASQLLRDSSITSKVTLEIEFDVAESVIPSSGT

HTRA2, O43464 = target: HTRA2, O43464
HTRA2, O43464, sequence (O43464 355-458): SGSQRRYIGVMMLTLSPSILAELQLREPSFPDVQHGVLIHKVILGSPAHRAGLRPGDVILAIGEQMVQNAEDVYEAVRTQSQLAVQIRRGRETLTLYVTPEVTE

SNTG1, Q9NSN8 = target: T4, SNTG1, Q9NSN8
T4 sequence (Q9NSN8 52-150, limits assumed, looked up): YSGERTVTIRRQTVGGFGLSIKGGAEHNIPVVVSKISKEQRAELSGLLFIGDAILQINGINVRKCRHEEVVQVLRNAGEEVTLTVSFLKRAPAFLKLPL

DLG3_3, Q92796 = target: T5, DLG3_3, Q92796
T5 sequence (Q92796 374-475, limits assumed, looked up): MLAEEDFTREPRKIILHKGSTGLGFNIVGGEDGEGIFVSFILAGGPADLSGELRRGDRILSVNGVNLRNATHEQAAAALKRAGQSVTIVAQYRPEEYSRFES

FRMPD3, Q5JV73 = target: FRMPD3, Q5JV73
FRMPD3, Q5JV73, sequence (Q5JV73 12-100): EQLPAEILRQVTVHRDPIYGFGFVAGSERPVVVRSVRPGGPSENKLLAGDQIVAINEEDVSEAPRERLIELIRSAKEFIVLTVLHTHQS

MAGI1_2, Q96QZ7 = target: MAGI1_2, Q96QZ7
MAGI1_2, Q96QZ7, sequence (Q96QZ7 456-580): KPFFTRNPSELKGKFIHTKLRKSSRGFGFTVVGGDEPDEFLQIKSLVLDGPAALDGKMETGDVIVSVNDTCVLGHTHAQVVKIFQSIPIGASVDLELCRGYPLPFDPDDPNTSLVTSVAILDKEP

Inadl_9, Q8NI35 = target: Inadl_9, Q8NI35
Inadl_9, Q8NI35, sequence (Q8NI35 1530-1615): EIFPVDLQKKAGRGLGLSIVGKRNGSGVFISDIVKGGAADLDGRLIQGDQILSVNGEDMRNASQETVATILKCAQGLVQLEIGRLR

MPP7, Q5T2T1 = target: T6, MPP7, Q5T2T1
T6 sequence (Q5T2T1 134-230, limits assumed, looked up): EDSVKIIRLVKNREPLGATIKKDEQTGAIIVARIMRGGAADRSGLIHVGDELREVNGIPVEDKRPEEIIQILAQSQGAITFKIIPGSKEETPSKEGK

RAPGEF6, Q8TEU7 = target: T7, RAPGEF6, Q8TEU7
T7 sequence (Q8TEU7 525-625, limits assumed, looked up): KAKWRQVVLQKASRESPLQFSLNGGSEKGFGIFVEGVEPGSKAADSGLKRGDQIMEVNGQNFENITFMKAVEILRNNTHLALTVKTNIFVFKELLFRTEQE

MPP6, Q9NZW5 = target: T8, MPP6, Q9NZW5
T8 sequence (Q9NZW5 125-219, limits assumed, looked up): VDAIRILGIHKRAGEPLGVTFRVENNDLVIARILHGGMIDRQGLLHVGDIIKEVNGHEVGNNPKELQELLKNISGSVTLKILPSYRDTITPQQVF

DLG1_3, Q12959 = target: DLG1_3, Q12959
DLG1_3, Q12959, sequence (Q12959 457-571): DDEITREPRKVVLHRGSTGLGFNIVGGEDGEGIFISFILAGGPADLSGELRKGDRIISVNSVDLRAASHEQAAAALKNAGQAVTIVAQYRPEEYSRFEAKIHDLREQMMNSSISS

LNX1_1, Q8TBB1 = target: LNX1_1, Q8TBB1
LNX1_1, Q8TBB1, sequence (Q8TBB1 261-371): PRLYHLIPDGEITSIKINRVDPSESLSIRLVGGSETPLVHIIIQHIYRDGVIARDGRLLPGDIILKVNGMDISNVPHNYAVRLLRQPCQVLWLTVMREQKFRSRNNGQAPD

LIMK2, P53671 = target: LIMK2, P53671
LIMK2, P53671, sequence (P53671 143-248): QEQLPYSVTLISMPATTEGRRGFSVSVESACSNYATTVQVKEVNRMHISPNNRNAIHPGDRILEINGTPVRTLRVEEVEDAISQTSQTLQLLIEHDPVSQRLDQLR

LDB3, O75112 = target: LDB3, O75112
LDB3, O75112, sequence (O75112 1-94): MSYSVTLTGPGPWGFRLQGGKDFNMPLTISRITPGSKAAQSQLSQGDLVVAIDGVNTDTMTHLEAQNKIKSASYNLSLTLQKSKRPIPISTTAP

PDZRN4_1, Q6ZMN7 = target: PDZRN4_1, Q6ZMN7
PDZRN4_1, Q6ZMN7, sequence (Q6ZMN7 213-318): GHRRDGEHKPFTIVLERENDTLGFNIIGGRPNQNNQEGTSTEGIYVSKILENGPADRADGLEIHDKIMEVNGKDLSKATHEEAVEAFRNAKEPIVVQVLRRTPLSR

GRIP2_6, Q9C0E4 = target: GRIP2_6, Q9C0E4
GRIP2_6, Q9C0E4, sequence (Q9C0E4 648-740): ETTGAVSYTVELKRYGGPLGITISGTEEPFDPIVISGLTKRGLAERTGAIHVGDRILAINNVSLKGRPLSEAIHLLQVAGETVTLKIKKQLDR

GRIP2_5, Q9C0E4 = target: GRIP2_5, Q9C0E4
GRIP2_5, Q9C0E4, sequence (Q9C0E4 544-642): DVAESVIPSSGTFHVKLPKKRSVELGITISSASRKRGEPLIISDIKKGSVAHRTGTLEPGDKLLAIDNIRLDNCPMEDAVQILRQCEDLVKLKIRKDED

MAST1, Q9Y2H9 = target: MAST1, Q9Y2H9
MAST1, Q9Y2H9, sequence (Q9Y2H9 962-1065): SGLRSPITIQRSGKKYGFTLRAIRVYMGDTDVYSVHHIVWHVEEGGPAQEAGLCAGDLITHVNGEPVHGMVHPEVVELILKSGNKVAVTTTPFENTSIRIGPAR

IL16_3, Q14005 = target: IL16_3, Q14005
IL16_3, Q14005, sequence (Q14005 1107-1207): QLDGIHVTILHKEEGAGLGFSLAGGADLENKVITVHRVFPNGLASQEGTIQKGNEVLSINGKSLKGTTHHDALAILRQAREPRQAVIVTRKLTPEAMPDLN

LNX1_3, Q8TBB1 = target: LNX1_3, Q8TBB1
LNX1_3, Q8TBB1, sequence (Q8TBB1 500-596): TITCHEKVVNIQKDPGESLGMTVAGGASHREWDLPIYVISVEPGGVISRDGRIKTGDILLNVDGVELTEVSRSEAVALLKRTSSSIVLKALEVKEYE

NHERF4_4, Q86UT5 = target: NHERF4_4, Q86UT5
NHERF4_4, Q86UT5, sequence (Q86UT5 464-550): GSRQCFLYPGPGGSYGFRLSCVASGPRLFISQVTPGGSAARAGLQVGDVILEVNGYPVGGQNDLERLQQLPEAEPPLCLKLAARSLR

FRMPD2_1, Q68DX3 = target: FRMPD2_1, Q68DX3
FRMPD2_1, Q68DX3, sequence (Q68DX3 770-861): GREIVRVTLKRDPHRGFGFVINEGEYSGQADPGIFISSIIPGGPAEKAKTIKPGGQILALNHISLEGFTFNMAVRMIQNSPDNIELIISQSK

IL16_4, Q14005 = target: IL16_4, Q14005
IL16_4, Q14005, sequence (Q14005 1229-1329): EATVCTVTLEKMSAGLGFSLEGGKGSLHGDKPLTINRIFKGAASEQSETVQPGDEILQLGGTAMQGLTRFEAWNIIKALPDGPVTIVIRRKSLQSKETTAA

GRIP2_4, Q9C0E4 = target: GRIP2_4, Q9C0E4
GRIP2_4, Q9C0E4, sequence (Q9C0E4 446-548): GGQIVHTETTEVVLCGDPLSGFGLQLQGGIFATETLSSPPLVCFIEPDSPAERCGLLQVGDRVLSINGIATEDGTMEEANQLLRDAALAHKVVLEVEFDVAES

CASK, O14936 = target: CASK, O14936
CASK, O14936, sequence (O14936 487-570): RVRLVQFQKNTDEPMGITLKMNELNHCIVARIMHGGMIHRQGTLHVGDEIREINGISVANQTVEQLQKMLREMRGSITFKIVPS

HTRA1, Q92743 = target: HTRA1, Q92743
HTRA1, Q92743, sequence (Q92743 360-477): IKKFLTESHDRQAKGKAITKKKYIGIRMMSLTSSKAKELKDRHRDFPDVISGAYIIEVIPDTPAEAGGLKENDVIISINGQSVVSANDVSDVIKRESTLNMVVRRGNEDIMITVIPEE

MAGI1_1, Q96QZ7, sequence (Q96QZ7 1-106): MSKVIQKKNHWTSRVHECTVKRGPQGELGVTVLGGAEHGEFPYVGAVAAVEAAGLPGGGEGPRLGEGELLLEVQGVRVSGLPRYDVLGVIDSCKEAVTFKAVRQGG

B4: FZD1, Q9UP38 (peptide)
chain: TNSKQGETTV
pKd (MAGI1_1, Q96QZ7): below the threshold
pKd (LIN7A, O14910): 3.72
pKd (APBA1_1, Q02410): below the threshold
pKd (GRIP1_4, Q9Y3R0): below the threshold
pKd (HTRA2, O43464): 3.55
pKd (SNTG1, Q9NSN8): 4.31
pKd (DLG3_3, Q92796): 4.13
pKd (FRMPD3, Q5JV73): below the threshold
pKd (MAGI1_2, Q96QZ7): 3.82
pKd (Inadl_9, Q8NI35): 3.57
pKd (MPP7, Q5T2T1): below the threshold
pKd (RAPGEF6, Q8TEU7): 3.54
pKd (MPP6, Q9NZW5): below the threshold
pKd (DLG1_3, Q12959): 4.13
pKd (LNX1_1, Q8TBB1): below the threshold
pKd (LIMK2, P53671): below the threshold
pKd (LDB3, O75112): below the threshold
pKd (PDZRN4_1, Q6ZMN7): 4.06
pKd (GRIP2_6, Q9C0E4): below the threshold
pKd (GRIP2_5, Q9C0E4): below the threshold
pKd (MAST1, Q9Y2H9): 4.32
pKd (IL16_3, Q14005): below the threshold
pKd (LNX1_3, Q8TBB1): below the threshold
pKd (NHERF4_4, Q86UT5): 3.95
pKd (FRMPD2_1, Q68DX3): 3.79
pKd (IL16_4, Q14005): 3.68
pKd (GRIP2_4, Q9C0E4): below the threshold
pKd (CASK, O14936): below the threshold
pKd (HTRA1, Q92743): 4.34

B5: SLC1A7, O00341 (peptide)
chain: IQISELETNV
pKd (MAGI1_1, Q96QZ7): below the threshold
pKd (LIN7A, O14910): 3.52
pKd (APBA1_1, Q02410): below the threshold
pKd (GRIP1_4, Q9Y3R0): below the threshold
pKd (HTRA2, O43464): below the threshold
pKd (SNTG1, Q9NSN8): 5.26
pKd (DLG3_3, Q92796): 3.56
pKd (FRMPD3, Q5JV73): below the threshold
pKd (MAGI1_2, Q96QZ7): below the threshold
pKd (Inadl_9, Q8NI35): below the threshold
pKd (MPP7, Q5T2T1): below the threshold
pKd (RAPGEF6, Q8TEU7): below the threshold
pKd (MPP6, Q9NZW5): below the threshold
pKd (DLG1_3, Q12959): 3.57
pKd (LNX1_1, Q8TBB1): 3.91
pKd (LIMK2, P53671): below the threshold
pKd (LDB3, O75112): below the threshold
pKd (PDZRN4_1, Q6ZMN7): 4.03
pKd (GRIP2_6, Q9C0E4): below the threshold
pKd (GRIP2_5, Q9C0E4): below the threshold
pKd (MAST1, Q9Y2H9): 4.71
pKd (IL16_3, Q14005): below the threshold
pKd (LNX1_3, Q8TBB1): below the threshold
pKd (NHERF4_4, Q86UT5): 3.85
pKd (FRMPD2_1, Q68DX3): below the threshold
pKd (IL16_4, Q14005): below the threshold
pKd (GRIP2_4, Q9C0E4): below the threshold
pKd (CASK, O14936): below the threshold
pKd (HTRA1, Q92743): 3.76

Next, values leading:

pKd (MAGI1_1, Q96QZ7): below the threshold
pKd (LIN7A, O14910): below the threshold
pKd (APBA1_1, Q02410): below the threshold
pKd (GRIP1_4, Q9Y3R0): below the threshold
pKd (HTRA2, O43464): below the threshold
pKd (SNTG1, Q9NSN8): below the threshold
pKd (DLG3_3, Q92796): below the threshold
pKd (FRMPD3, Q5JV73): below the threshold
pKd (MAGI1_2, Q96QZ7): below the threshold
pKd (Inadl_9, Q8NI35): below the threshold
pKd (MPP7, Q5T2T1): below the threshold
pKd (RAPGEF6, Q8TEU7): below the threshold
pKd (MPP6, Q9NZW5): below the threshold
pKd (DLG1_3, Q12959): below the threshold
pKd (LNX1_1, Q8TBB1): below the threshold
pKd (LIMK2, P53671): below the threshold
pKd (LDB3, O75112): below the threshold
pKd (PDZRN4_1, Q6ZMN7): below the threshold
pKd (GRIP2_6, Q9C0E4): below the threshold
pKd (GRIP2_5, Q9C0E4): below the threshold
pKd (MAST1, Q9Y2H9): below the threshold
pKd (IL16_3, Q14005): below the threshold
pKd (LNX1_3, Q8TBB1): below the threshold
pKd (NHERF4_4, Q86UT5): below the threshold
pKd (FRMPD2_1, Q68DX3): below the threshold
pKd (IL16_4, Q14005): below the threshold
pKd (GRIP2_4, Q9C0E4): below the threshold
pKd (CASK, O14936): below the threshold
pKd (HTRA1, Q92743): 4.32
B1: TMEM178B, H3BS89 (peptide)
chain: KSRPENGTVC

pKd (MAGI1_1, Q96QZ7): below the threshold
pKd (LIN7A, O14910): below the threshold
pKd (APBA1_1, Q02410): below the threshold
pKd (GRIP1_4, Q9Y3R0): below the threshold
pKd (HTRA2, O43464): below the threshold
pKd (SNTG1, Q9NSN8): 3.5
pKd (DLG3_3, Q92796): 3.6
pKd (FRMPD3, Q5JV73): below the threshold
pKd (MAGI1_2, Q96QZ7): below the threshold
pKd (Inadl_9, Q8NI35): below the threshold
pKd (MPP7, Q5T2T1): below the threshold
pKd (RAPGEF6, Q8TEU7): below the threshold
pKd (MPP6, Q9NZW5): 3.95
pKd (DLG1_3, Q12959): below the threshold
pKd (LNX1_1, Q8TBB1): 3.5
pKd (LIMK2, P53671): below the threshold
pKd (LDB3, O75112): below the threshold
pKd (PDZRN4_1, Q6ZMN7): 4.43
pKd (GRIP2_6, Q9C0E4): below the threshold
pKd (GRIP2_5, Q9C0E4): below the threshold
pKd (MAST1, Q9Y2H9): 5.07
pKd (IL16_3, Q14005): below the threshold
pKd (LNX1_3, Q8TBB1): below the threshold
pKd (NHERF4_4, Q86UT5): below the threshold
pKd (FRMPD2_1, Q68DX3): below the threshold
pKd (IL16_4, Q14005): below the threshold
pKd (GRIP2_4, Q9C0E4): below the threshold
pKd (CASK, O14936): below the threshold
pKd (HTRA1, Q92743): 3.92
B2: SLC22A11, Q9NSA0 (peptide)
chain: EAVTVESTSL

pKd (MAGI1_1, Q96QZ7): below the threshold
pKd (LIN7A, O14910): below the threshold
pKd (APBA1_1, Q02410): below the threshold
pKd (GRIP1_4, Q9Y3R0): below the threshold
pKd (HTRA2, O43464): below the threshold
pKd (SNTG1, Q9NSN8): below the threshold
pKd (DLG3_3, Q92796): below the threshold
pKd (FRMPD3, Q5JV73): below the threshold
pKd (MAGI1_2, Q96QZ7): below the threshold
pKd (Inadl_9, Q8NI35): below the threshold
pKd (MPP7, Q5T2T1): below the threshold
pKd (RAPGEF6, Q8TEU7): below the threshold
pKd (MPP6, Q9NZW5): below the threshold
pKd (DLG1_3, Q12959): below the threshold
pKd (LNX1_1, Q8TBB1): below the threshold
pKd (LIMK2, P53671): below the threshold
pKd (LDB3, O75112): below the threshold
pKd (PDZRN4_1, Q6ZMN7): below the threshold
pKd (GRIP2_6, Q9C0E4): below the threshold
pKd (GRIP2_5, Q9C0E4): below the threshold
pKd (MAST1, Q9Y2H9): below the threshold
pKd (IL16_3, Q14005): below the threshold
pKd (LNX1_3, Q8TBB1): below the threshold
pKd (NHERF4_4, Q86UT5): below the threshold
pKd (FRMPD2_1, Q68DX3): below the threshold
pKd (IL16_4, Q14005): below the threshold
pKd (GRIP2_4, Q9C0E4): below the threshold
pKd (CASK, O14936): below the threshold
pKd (HTRA1, Q92743): below the threshold
B3: TYRO3, Q06418 (peptide)
chain: QQGLLPHSSC

From article PMC9482650, “Quantitative fragmentomics allow affinity mapping of interactomes” (Nature Communications, 2022)
